Experimental data published in the Human Domainome abundance scans (Beltran et al. 2025).
± gives the uncertainty stated by the source.

B1: POU domain, class 4, transcription factor 2, residues 256 to 327; numbered along this chain, Q12837 (parent)
chain: RDLEAFAERFKQRRIKLGVTQADVGSALANLKIPGVGSLSQSTICRFESLTLSHNNMIALKPILQAWLEEAE

Variants of: B1
Test: abundance fitness (aPCA) (normalised: wild type 0, dead -1); higher = more abundant; growth selection in yeast, the domain comes from the species named
Details: Homo sapiens

| Variant | abundance fitness |
| --- | --- |
| RDLEAFAERFKQRRIKLGVTQADVGSALANLKIPGVMSLSQSTICRFESLTLSHNNMIALKPILQAWLEEAE [G37M] | -0.163 ± 0.085 |
| RDLEAFAERFKQRRIKLGVTQADVGSALANLKIPGVLSLSQSTICRFESLTLSHNNMIALKPILQAWLEEAE [G37L] | -0.205 ± 0.074 |
| RDLEAFAERFKQRRIKLGVTQADVGSALANLKIPGVNSLSQSTICRFESLTLSHNNMIALKPILQAWLEEAE [G37N] | -0.309 ± 0.28 |
| RDLEAFAERFKQRRIKLGVTQADVGSALANLKIPGVHSLSQSTICRFESLTLSHNNMIALKPILQAWLEEAE [G37H] | 0.083 ± 0.16 |
| RDLEAFAERFKQRRIKLGVTQADVGSALANLKIPGVQSLSQSTICRFESLTLSHNNMIALKPILQAWLEEAE [G37Q] | -0.015 ± 0.097 |
| RDLEAFAERFKQRRIKLGVTQADVGSALANLKIPGVRSLSQSTICRFESLTLSHNNMIALKPILQAWLEEAE [G37R] | -0.111 ± 0.055 |
| RDLEAFAERFKQRRIKLGVTQADVGSALANLKIPGVCSLSQSTICRFESLTLSHNNMIALKPILQAWLEEAE [G37C] | -0.118 ± 0.092 |
| RDLEAFAERFKQRRIKLGVTQADVGSALANLKIPGVDSLSQSTICRFESLTLSHNNMIALKPILQAWLEEAE [G37D] | -0.198 ± 0.18 |
| RDLEAFAERFKQRRIKLGVTQADVGSALANLKIPGVVSLSQSTICRFESLTLSHNNMIALKPILQAWLEEAE [G37V] | -0.269 ± 0.067 |
| RDLEAFAERFKQRRIKLGVTQADVGSALANLKIPGVYSLSQSTICRFESLTLSHNNMIALKPILQAWLEEAE [G37Y] | -0.418 ± 0.23 |
| RDLEAFAERFKQRRIKLGVTQADVGSALANLKIPGVISLSQSTICRFESLTLSHNNMIALKPILQAWLEEAE [G37I] | -0.587 ± 0.28 |
| RDLEAFAERFKQRRIKLGVTQADVGSALANLKIPGVTSLSQSTICRFESLTLSHNNMIALKPILQAWLEEAE [G37T] | -0.162 ± 0.08 |
| RDLEAFAERFKQRRIKLGVTQADVGSALANLKIPGVPSLSQSTICRFESLTLSHNNMIALKPILQAWLEEAE [G37P] | -0.2 ± 0.1 |
| RDLEAFAERFKQRRIKLGVTQADVGSALANLKIPGVSSLSQSTICRFESLTLSHNNMIALKPILQAWLEEAE [G37S] | 0.028 ± 0.055 |
| RDLEAFAERFKQRRIKLGVTQADVGSALANLKIPGVKSLSQSTICRFESLTLSHNNMIALKPILQAWLEEAE [G37K] | -0.209 ± 0.11 |
| RDLEAFAERFKQRRIKLGVTQADVGSALANLKIPGVFSLSQSTICRFESLTLSHNNMIALKPILQAWLEEAE [G37F] | -0.398 ± 0.12 |
| RDLEAFAERFKQRRIKLGVTQADVGSALANLKIPGVESLSQSTICRFESLTLSHNNMIALKPILQAWLEEAE [G37E] | -0.207 ± 0.12 |
| RDLEAFAERFKQRRIKLGVTQADVGSALANLKIPGVASLSQSTICRFESLTLSHNNMIALKPILQAWLEEAE [G37A] | -0.098 ± 0.066 |
| RDLEAFAERFKQRRIKLGVTQADVGSALANLKIPGVWSLSQSTICRFESLTLSHNNMIALKPILQAWLEEAE [G37W] | -0.68 ± 0.14 |

| Variant | abundance fitness |
| --- | --- |
| RDLEAFAERFKQRRIKLGVTQADVGSALANLKIPGVGSMSQSTICRFESLTLSHNNMIALKPILQAWLEEAE [L39M] | -0.01 ± 0.087 |
| RDLEAFAERFKQRRIKLGVTQADVGSALANLKIPGVGSCSQSTICRFESLTLSHNNMIALKPILQAWLEEAE [L39C] | -0.168 ± 0.12 |
| RDLEAFAERFKQRRIKLGVTQADVGSALANLKIPGVGSPSQSTICRFESLTLSHNNMIALKPILQAWLEEAE [L39P] | -0.258 ± 0.075 |
| RDLEAFAERFKQRRIKLGVTQADVGSALANLKIPGVGSKSQSTICRFESLTLSHNNMIALKPILQAWLEEAE [L39K] | -0.141 ± 0.16 |
| RDLEAFAERFKQRRIKLGVTQADVGSALANLKIPGVGSGSQSTICRFESLTLSHNNMIALKPILQAWLEEAE [L39G] | -0.499 ± 0.039 |
| RDLEAFAERFKQRRIKLGVTQADVGSALANLKIPGVGSFSQSTICRFESLTLSHNNMIALKPILQAWLEEAE [L39F] | -0.181 ± 0.14 |
| RDLEAFAERFKQRRIKLGVTQADVGSALANLKIPGVGSNSQSTICRFESLTLSHNNMIALKPILQAWLEEAE [L39N] | -0.615 ± 0.35 |
| RDLEAFAERFKQRRIKLGVTQADVGSALANLKIPGVGSDSQSTICRFESLTLSHNNMIALKPILQAWLEEAE [L39D] | -0.413 ± 0.46 |
| RDLEAFAERFKQRRIKLGVTQADVGSALANLKIPCVGSLSQSTICRFESLTLSHNNMIALKPILQAWLEEAE [G35C] | -0.512 ± 0.19 |
| RDLEAFAERFKQRRIKLGVTQADVGSALANLKIPKVGSLSQSTICRFESLTLSHNNMIALKPILQAWLEEAE [G35K] | -0.389 ± 0.13 |
| RDLEAFAERFKQRRIKLGVTQADVGSALANLKIPPVGSLSQSTICRFESLTLSHNNMIALKPILQAWLEEAE [G35P] | -0.77 ± 0.13 |
| RDLEAFAERFKQRRIKLGVTQADVGSALANLKIPAVGSLSQSTICRFESLTLSHNNMIALKPILQAWLEEAE [G35A] | -0.323 ± 0.1 |
| RDLEAFAERFKQRRIKLGVTQADVGSALANLKIPYVGSLSQSTICRFESLTLSHNNMIALKPILQAWLEEAE [G35Y] | -0.763 ± 0.32 |
| RDLEAFAERFKQRRIKLGVTQADVGSALANLKIPNVGSLSQSTICRFESLTLSHNNMIALKPILQAWLEEAE [G35N] | -0.116 ± 0.24 |
| RDLEAFAERFKQRRIKLGVTQADVGSALANLKIPRVGSLSQSTICRFESLTLSHNNMIALKPILQAWLEEAE [G35R] | -0.153 ± 0.1 |
| RDLEAFAERFKQRRIKLGVTQADVGSALANLKIPDVGSLSQSTICRFESLTLSHNNMIALKPILQAWLEEAE [G35D] | -0.36 ± 0.22 |
| RDLEAFAERFKQRRIKLGVTQADVGSALANLKIPVVGSLSQSTICRFESLTLSHNNMIALKPILQAWLEEAE [G35V] | -0.299 ± 0.092 |
| RDLEAFAERFKQRRIKLGVTQADVGSALANLKIPTVGSLSQSTICRFESLTLSHNNMIALKPILQAWLEEAE [G35T] | -0.365 ± 0.12 |
